Measurements published in patent publication US20210100886A1, “WT1 CANCER ANTIGEN PEPTIDES AND PEPTIDE CONJUGATES COMPRISING THE PEPTIDES” (SUMITOMO DAINIPPON PHARMA CO., LTD., priority 2017, published 2021).
Where no end group is shown, it is not given here.

Test system: HLA-A*24:02 transgenic mouse
Test: In vivo CTL induction in HLA-A*24:02 transgenic mouse (IFNγ ELISPOT assay of splenocytes)
Details: peptide 280 μg per site, intradermal Montanide ISA 51 VG emulsion, two sites; one week after administration
Protocol: The HLA-A*24:02 transgenic mouse (C57BL/6CrHLA-A2402/K^b) is a mouse that expresses a chimeric HLA of a human MHC, HLA-A*24:02 with a mouse MHC, H-2K^b.
The solution was diluted with water for injection to a concentration of 10 mg/mL, and then converted to an emulsion by addition of an equal volume of Montanide ISA 51 VG. […] The concentrations of DMSO contained in emulsions were also fixed. One week after the administration, the mice were sacrificed with CO2 gas. Splenocytes were harvested from spleens removed from the mice. For detecting IFNγ-producing splenocytes, an IFNγ ELISPOT assay kit was used. In particular, an ELISPOT plate was treated with an anti-mouse-IFNγ antibody on the day before preparation of the splenocyte samples. On the next day, the plate was blocked by treatment with an RPMI 1640 medium with 10% FBS. To the blocked ELISPOT plate, the splenocyte samples from the HLA-A*24:02 transgenic mice were added at 2.5×10^5 cells/well. For in vitro stimulation of the cells, the peptide of SEQ ID NO: 4 was dissolved in DMSO at a concentration of 40 mg/ml, diluted with RPMI 1640 with 10% FBS to 40 μg/ml, and added to the splenocyte-containing wells at a final concentration of 10 μg/ml. The plate was incubated for 18-20 hours at 37° C. under an atmosphere of 5% CO2. Then, after removal of the culture medium from the wells, the ELISPOT plate was subjected to treatment for cell staining in accordance with the manufacturer's protocol. Stained spots were counted on ImmunoSpot S6 Analyzer (C.T.L.). […]

Molecule | induction of CTLs responsive to the peptide of SEQ ID NO: 4 (IFNγ-producing splenocytes)
ECYTWNQMNL [SEQ ID NO: 32] | induced CTLs responsive to the peptide of SEQ ID NO: 4
FCYTWNQMNL [SEQ ID NO: 38] | induced CTLs responsive to the peptide of SEQ ID NO: 4
HCYTWNQMNL [SEQ ID NO: 34] | induced CTLs responsive to the peptide of SEQ ID NO: 4
KCYTWNQMNL [SEQ ID NO: 36] | induced CTLs responsive to the peptide of SEQ ID NO: 4
QCYTWNQMNL [SEQ ID NO: 30] | induced CTLs responsive to the peptide of SEQ ID NO: 4
RCYTWNQMNL [SEQ ID NO: 28] | induced CTLs responsive to the peptide of SEQ ID NO: 4
YCYTWNQMNL [SEQ ID NO: 40] | induced CTLs responsive to the peptide of SEQ ID NO: 4

Target: endoplasmic reticulum aminopeptidase 1 (UniProt Q9NZ08 1-941, limits assumed)
Test: cell-based or functional assay
Details: not given

endoplasmic reticulum aminopeptidase 1, sequence (Q9NZ08 whole entry): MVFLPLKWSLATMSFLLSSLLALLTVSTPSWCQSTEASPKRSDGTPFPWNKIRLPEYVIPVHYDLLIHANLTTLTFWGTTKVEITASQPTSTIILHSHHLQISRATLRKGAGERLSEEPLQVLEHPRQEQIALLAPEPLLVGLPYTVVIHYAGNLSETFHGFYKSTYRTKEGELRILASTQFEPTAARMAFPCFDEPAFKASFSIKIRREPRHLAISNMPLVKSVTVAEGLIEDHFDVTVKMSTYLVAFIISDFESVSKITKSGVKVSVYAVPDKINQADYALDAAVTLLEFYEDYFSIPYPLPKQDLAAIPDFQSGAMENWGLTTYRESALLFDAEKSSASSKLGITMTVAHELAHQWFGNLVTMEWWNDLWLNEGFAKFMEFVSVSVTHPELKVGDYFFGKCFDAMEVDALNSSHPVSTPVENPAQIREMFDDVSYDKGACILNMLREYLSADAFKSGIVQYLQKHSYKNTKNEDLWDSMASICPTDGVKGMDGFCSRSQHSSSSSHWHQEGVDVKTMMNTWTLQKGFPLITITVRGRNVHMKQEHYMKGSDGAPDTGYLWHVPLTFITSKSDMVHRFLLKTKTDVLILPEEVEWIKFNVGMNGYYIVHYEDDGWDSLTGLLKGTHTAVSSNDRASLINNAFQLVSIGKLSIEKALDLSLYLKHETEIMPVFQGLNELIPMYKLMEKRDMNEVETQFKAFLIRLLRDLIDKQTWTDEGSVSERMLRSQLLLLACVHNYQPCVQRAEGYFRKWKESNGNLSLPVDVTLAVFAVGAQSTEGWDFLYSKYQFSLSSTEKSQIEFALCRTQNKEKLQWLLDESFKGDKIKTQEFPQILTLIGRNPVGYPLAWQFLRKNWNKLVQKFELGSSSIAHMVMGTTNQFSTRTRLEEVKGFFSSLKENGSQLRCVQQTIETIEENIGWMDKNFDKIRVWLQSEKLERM

Molecule | Production Rate of SEQ ID NO: 4 [%]
QCYTWNQMNL (also: TFA salt) [peptide QCYTWNQMNL (SEQ ID NO: 30)] | 32.5
ECYTWNQMNL (also: TFA salt) [peptide ECYTWNQMNL (SEQ ID NO: 32)] | 32.5
NCYTWNQMNL (also: TFA salt) [peptide NCYTWNQMNL (SEQ ID NO: 61)] | 29.1
RCYTWNQMNL (also: TFA salt) [peptide RCYTWNQMNL (SEQ ID NO: 28)] | 49.2
VCYTWNQMNL (also: TFA salt) [peptide VCYTWNQMNL (SEQ ID NO: 65)] | 5.1
FCYTWNQMNL (also: TFA salt) [peptide FCYTWNQMNL (SEQ ID NO: 38)] | 18.4
KCYTWNQMNL (also: TFA salt) [peptide KCYTWNQMNL (SEQ ID NO: 36)] | 45
SCYTWNQMNL (also: TFA salt) [peptide SCYTWNQMNL (SEQ ID NO: 63)] | 24.6
PCYTWNQMNL (also: TFA salt) [peptide PCYTWNQMNL (SEQ ID NO: 62)] | 11.1
MCYTWNQMNL (also: TFA salt) [peptide MCYTWNQMNL (SEQ ID NO: 60)] | 32.1
CCYTWNQMNL (cysteine pairing not given here; also: TFA salt) [peptide CCYTWNQMNL (SEQ ID NO: 10)] | 20.3
ACYTWNQMNL (also: TFA salt) [peptide ACYTWNQMNL (SEQ ID NO: 55)] | 10
WCYTWNQMNL (also: TFA salt) [peptide WCYTWNQMNL (SEQ ID NO: 66)] | 5.2
ICYTWNQMNL (also: TFA salt) [peptide ICYTWNQMNL (SEQ ID NO: 58)] | 2.8
HCYTWNQMNL (also: TFA salt) [peptide HCYTWNQMNL (SEQ ID NO: 34)] | 24.4
LCYTWNQMNL (also: TFA salt) [peptide LCYTWNQMNL (SEQ ID NO: 59)] | 5.8
YCYTWNQMNL (also: TFA salt) [peptide YCYTWNQMNL (SEQ ID NO: 40)] | 35.2
TCYTWNQMNL (also: TFA salt) [peptide TCYTWNQMNL (SEQ ID NO: 64)] | 15.6
